Test: soluble on expression in E. coli; label from the status in PepcDB or PDB records

Row | Sequence | soluble on expression in E. coli
1 | METPVPKPRTKFEPSSPEPTLPPRPPVKPPRAVANSTAVQNFGNVLGELRLNLNETISSQDPPGIGFIEVSPGTSMSPPQRHAPPPPRPPPPAGWKQHPVIPERIQLNRPLPSLPIDVSLTPVYSEPSTSSPSSTNCYENHNSSVVENPLYLSLDTYRSISGITPSPSNAPTTSPDCDELREWLTEEEENESCSSSRPENLNASIPAPIPGDDSRPSIDSEENPYTPCPRRSDYDNSEFIGSTIDPFDDSFYTDNTTNNSHQNLYVSPQFVKEKTKSECDRYENVVEICSSPDPPPTHLYVNVPPIYPSADNIISSESDDVFRDEGKMKIDGSSITFVGFVSLTSSKKEKRLHCRLRNMQLSFHDDEDSTEPSNGTFDIKGIYLFRHMASDTPYILIHVGEKRNVISFIPEDPPNLWMFFLSEAWLSLNYGLTSVLRDADELTICGITWIKHGTTGEWKICSAGINGLTLHYMLVDAKDRIYNRNSERSDAGTSFMSTVGSIIGDELVEVDLRKVMTMRERIDKSEFCPNARHKRGPFSITLHGVTLYIDSRDDSTTSHWYEAIEALLKRPATRLENLRLTGDNIPVIVDKCIRFVSAYGMKCEGIYRRNGKVTEAKTILTKLTEDPVGYYPVHENDETVYAVADVLRQFFRKLDAPLFPSSSQADLFDLATESQSDELCARYAQLINTFELVHRSTLKKLIGHLKNVSEHAQENRASVENLAKVFAASLFLTDAMDEKVFSESYNHQINVLIHLTTGYDVVFQISIEEELSRQMVNDAEKKSFNAKKPSPDFIVAIHVWEKENRPFNVKMSLASEEVCREAIAKRGFDGPPDSPYAIFECLAGGNLIRRLPNAQKMSKCVLQWIDWNCKDAYLLFDHDKYQFNGTDMSCFTGKIKIAEPGSRTFKSYEVKIENGTSIVAFRNEKLWKAWPMDDSIWYVGTEPTRKSPNLFNATMICSTKTGYSSSRFPGFCFSFKEETDRNRWLTALSHFTKSIDSEPLVYI | not soluble
2 | MSLGKRLKEARQKAGYTQKEAAEKLNIGNNNLSNYERDYRDPDTDTLLKLSNLYNVSTDYLLGKDEVSKKNETDLLNKTINEAIQELKDEDTLLFMNDGEFDEETARLVKKALKNGIKFIDELKKKE | not soluble
3 | MFLAQPRGFCAGVVRAIEIVERALEKYGPPVYVRHEIVHNKYVVESLKAKGAIFVEELSEVPPKAVTVFSAHGVARSIEEEAAARDLPVLNATCPLVTKVHNQGKRYTSKGRTLILIGHAGHPEVEGTMGQVPGPVLLVQNLDDVAALTLPPETPVAYITQTTLSVDDTKDIIVALSKKFHDIEGPDTRDICYATQNRQSAVRQMSKLVDLILVVGANNSSNSNRLREIGTEAGIPSYLIADGSELDPAWLDGKKAVGITAGASAPEVLVDDVIEALRRIVPVTVSVLPGREENIEFVLPAELATALEHHHHHH | not soluble
4 | MAKVLVLNASYEPLNITHWQRAVVLLLKDKAEALENNGKLIYANFPLPSVIRLRQYIKVPYKEIPLTRRNVLERDRHTCQYCNYKGEQLTLDHVIPRSRGGGDSWENLVTACVRCNIKKGNRTPREAQMSLNYTPRRPYSSLLFEIIKHTRNDRNHEWRKYVIGILEHHHHHH | not soluble
5 | MGSDKIHHHHHHAGCAMIPPEPVVTGPLTAPPPPPPQPSARPNGSIYQPSAYGNYPLFEDRRPRNVGDIVTIVLEEKTNAAKGVATNTSRDGSATLGVAAAPRFMDGIINDKLDTDISGGNTANGTGKSSANNTFTGTITTTVIGVLPNGNLQIAGEKQIAINRGSEYVRFSGVVDPRSITGSNTVSSTRVADARIEYRSKGVMDEVQTMGWLQRFFLIASPF | not soluble
6 | GSHMPVVHVIDVESGNLQSLTNAIEHLGYEVQLVKSPKDFNISGTSRLILPGVGNYGHFVDNLFNRGFEKPIREYIESGKPIMGICVGLQALFAGSVESPKSTGLNYIDFKLSRFDDSEKPVPEIGWNSCIPSENLFFGLDPYKRYYFVHSFAAILNSEKKKNLENDGWKIAKAKYGSEEFIAAVNKNNIFATQFHPEKSGKAGLNVIENFLKQQSPPIPNYSAEEKELLMNDYSNYGLTRRIIACLDVRTNDQGDLVVTKGDQYDVREKSDGKGVRNLGKPVQLAQKYYQQGADEVTFLNITSFRDCPLKDTPMLEVLKQAAKTVFVPLTVGGGIKDIVDVDGTKIPALEVASLYFRSGADKVSIGTDAVYAAEKYYELGNRGDGTSPIETISKAYGAQAVVISVDPKRVYVNSQADTKNKVFETEYPGPNGEKYCWYQCTIKGGRESRDLGVWELTRACEALGAGEILLNCIDKDGSNSGYDLELIEHVKDAVKIPVIASSGAGVPEHFEEAFLKTRADACLGAGMFHRGEFTVNDVKEYLLEHGLKVRMDEE | soluble
7 | MGSDKIHHHHHHMAHPPQIRIPATYLRGGTSKGVFFRLEDLPESCRVPGEARDRLFMRVIGSPDPYAAHIDGMGGATSSTSKCVILSKSSQPGHDVDYLYGQVSIDKPFVDWSGNCGNLSTGAGAFALHAGLVDPARIPEDGICEVRIWQANIGKTIIAHVPVSGGQVQETGDFELDGVTFPAAEIVLEFLDPSDDGEDGGAIFPTGNLVDDLEVPGVGTFKATMINAGIPTVFVNAEEIGYRGTELREEINGDPQQLARFERIRVAGALRMGLIKTPEEAATRQHTPKIAFVAPPRDYRTASGKLVAAGDIDLLVRALSMGKLHHAMMGTAAVAIGTAAAIPGTLVNLAAGGGERSAVRFGHPSGTLRVGAEASQANGEWTVTKAIMSRSARILMEGWVRVPGDAF | not soluble
8 | MGSDKIHHHHHHMPKPTKIVVLLKGYPRLSETFIAQELLGLEQAGFALELVAMRRPTDKKRHPVHDEIQAPVHYLPEYLHEEPGRVLKALWAVRRLPGFRPVLTQFFKDLRRDFSRNRFRRLGQAMVLVAEWPGKADWLHAHFIHTPASVAFYASLLGSRGFSVSAHAKDIWTSESWDLADKLAHATWVVTCTKVGFDRLSALADGRGSVHLSYHGLDLDRFPHFEGVRPARDGSDTADPLRLLSVGRAVKKKGYDVLLRALSALPADLNWHFTHIGGGDELVRLQALADQLGIASRITWKGAMDQRDVLTHYRDSDLFTLACRITADGDRDGLPNVLVEAASQGLMPVSTTVSGISELFVDGENGLLVEPDDAQALAVALEKAMRDPALRARLGSAAEGKVRRDFDYRNSIRDLTDLFSGRQ | not soluble
9 | MYSANRSHRAETRNRSKDELRKVINSLEKVRRWEKKLVLIKDTNIRIYKWVPVSAQNIMAPPKIKEVKEVDEESNQVPSAENSQDSTSVTQPPPQFDINEDSNFSTGDHFDSDSNQTFEPQNYQGGATGSTDFSSMRDAEMTSKQP | not soluble
10 | MIHIDKNVRTSGAYVMYKNSFVFQVGPTSKGDTLGVVRLGGHKEADETAVETAKREVEEEASIDITILNSPTTYYKEYWNAQSKKLKVENKVNPILIIDSPDESLSIMYVAYSKMQPKPSSETKGLLLLSLNDIELICTGKITLNDYINQGGVSILKEKMDKELILQPFPQLMFLSELLKEDPVLLQQFLNLEHHHHHH | soluble
11 | MGSDKIHHHHHHTHSVETPYGSVTFTVYGTPKPKRPAIFTYHDVGLNYKSCFQPLFRFGDMQEIIQNFVRVHVDAPGMEEGAPVFPLGYQYPSLDQLADMIPCILQYLNFSTIIGVGVGAGAYILSRYALNHPDTVEGLVLINIDPNAKGWMDWAAHKLTGLTSSIPDMILGHLFSQEELSGNSELIQKYRGIIQHAPNLENIELYWNSYNNRRDLNFERGGETTLKCPVMLVVGDQAPHEDAVVECNSKLDPTQTSFLKMADSGGQPQLTQPGKLTEAFKYFLQG | soluble
12 | TLFDGIARAVCRAGCLPRKELYEAWEVARRVRRRFRGGRVVDLACGHGLLAWIMLLLDDSSPGALAVDRRLPPSAAGLAAVLETEWPRLRGRVRLLEADLAEVELGRDDLVVSAHACGGLTDLVLARAVAAGARVAVLPCCHDLAGADLAGLQGWLDGPLAMDVLRATGLRERGYRVFTQQ | not soluble
13 | MSTATSKFLSYVLRHAPESIGLVLDSQGWADVADLLAKANASGTPLDEAGLRAVVAESDKKRFTLSEDGRRIRAAQGHSVKVDLGQPPVEPPPQLFHGTATRFLEPILREGLRPGERQQVHLSADRTTALAVGQRHGKPVVLIVDAGQMFADGCRFYLADNGVWLTDAVPFSYLTVSADSSAENDRLEHHHHHH | soluble
14 | MPRAYWKGTLKLSLVTCPVALYPATTSVEKTRFHMINAETGNRLKQQMIDEDTGDVVEKDQKARGYEVRKGKYIEIEKDELEAVQIESTHTIDIDSFVPADEIDQRFLNHPYYIVPDGKAGTDAFAVIRDAMKDKGHVALGRIVLTNREHVLAIEPFGKGLLATTLRYPYELRDAD | not soluble
15 | MIKRPHVMQDSIQDCGVACIEMICKFYNINIDRRYIQEETGYGMIGISLKAMEKFFSKVDANPEIVNISKINRLNKENREMINNSLPAIVFLEEEEIINHFVVIWHIGKKRILVSDPTHTKKEWINNKHFEKRAISYLFVEKPKNI | not soluble
16 | MSLSASQTSDVPTLLVKIFGKDRPGITAGLFDTLAAYSVDVVDIEQVVTRGRIVLCALVTEPPRGLEGDLRATVHSWAESLKLQAEIISGIGDNRPRGFGRSLVTVLGHPLTAEATAAIAARITESGSNIDRIFRLAKYPVTAVEFAVSGVETEPLRTALATEAAALGVDIAVVAAGLHRRAQRLVVMDVDSTLIQDEVIELFAAHAGCEDEVAEVTAAAMRGELDFEQSLHARVALLAGLDASVVDKVRAEVRLTPGARTLIRTLKRLGYQVGVVSGGFTQVTDALQEQLGLDFAQANTLEIVDGRLTGRVTGEIVDRAGKARLLRRFAAAAGVPLSQTVAIGDGANDLDMLNAAGLGVAFNAKPVVREAAHTAVNVPFLDTVLYLLGITREEVEAADTLADDLGDGPGREGHHHHHH | soluble
17 | MIIQNEFNLYPSNMLPERFCYPEKYVRISNDTSLIPYIQPHNFHWWFENYGTEGAEVAYIFRNSILPDLNLIPFASNGEWEAYFDGNDVTGNSRVIVINLDNIENHEFFNSFEDWLELAIKDTW | not soluble
18 | MGSDKIHHHHHHMISAEQLVFTYHDQKNPACQISTCQIASGQFIVLCGPSGSGKSTFLKLLNGIIPDYYAGKYEGRLDVADCQAGRDSVETFSRSVASVFQNPASQFFYREVQHELVFPCENQGLDAKVIMKRLWTLAEDFAFAELLNKDMFGLSGGQKQRVAIATAIMQGTNIMLFDEPTANLDSAGIAAVKAYLTQLKAAGKTIIVAEHRLHYLMDLADNFFYFKNGRLTDKLTTQNLLALTDEQRQDMGLRRLDLSDLKPVLAGKIESQHYRPDDSLCIEHLTVRAGSKILRCIEQLSFAVGSISGITGSNGLGKSQLVYYIAGILDDKKATIKFQGIPLSAKQRLSKTSIVLQEVSLQLFAESVSKEVNLGHERHPRTTEVIERLSLTTLLERHPASLSGGEQQRVMIAASLLADKDILIFDEPSSGLDLLQMKALANLLMQLKTQHKVVILISHDEELLSSVCDTIYQMLP | not soluble
19 | MMHQLYPQVAHHYRYELNKDMHIAAAHFIPHEAAGSCANVHGHTYIVNVTIAGDELDESGFLVNFQTLKQLVHRKLDHTLLNDHSDWFDGHDPNRFPTSEVVARTIYETIQRYLDTLPHKPKCLQVFVRETPTSYVVYRPKAGER | soluble
20 | MSLDKLQRISEAIKSKKKLVVMFSGGVDSTLLAKLAREVLGKNAVALTIDSPVIPRKEIEEAKNLANLIGIRHEFIELNELKSRHLIENPPDRCYLCRKLRDNIVKNWARENGFDVIADGLNFSDLQDYRPGVKASTEDGIWHPFIDFEVTKEEIREYSKKLGLPTWDKPAMACLCSRFPYGFGLNEERVRMVEKAENFLRELGFREVRVRFFPYKTAVVEVGRDEMELLMGKRTDIVLALQKIGFSFVTLDLEGFASGKLNRTIEGMSKEGGSHHHHHH | soluble
21 | MATASADTLCSQQEDESWGNLMLHGFQVEAYKPVRVGDKVCYSFYLKNTGSSDVTLGKKGVYLHTNDGDLSSNSGATISPGKSIFVKDCFIASSSGEWTTYPGVCIITAKGEFCHNFETSCTFDVFIECPENWNCMTAEDASQGNYIRYSDELCGYTITGFTAMNKVRCTATEKLLNALQALGV | not soluble
